System: MS2 coat protein
Test: apparent KD of MS2 coat protein; designed switch direction (-1 OFF switch, 1 ON switch): -1; higher = weaker reporter binding
Summary of the method: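 On Illumina chips, designed RNA switches with common flanks were made by stalled E. coli RNA polymerase. Titrations with SNAP-549-labelled MS2 coat protein, doubling from 0.7 or 1.5 nM to 3 µM, were done with no input, with 200 uM small-molecule ligand, or with an oligonucleotide input. Apparent KD is the median per design over clusters, from curve fits of normalised cluster fluorescence.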

[1] = Eterna round: R95, input ligand: FMN 200 uM
[2] = Eterna round: R95, input ligand: microRNA oligo, concentration not stated
[3] = Eterna round: R95, input ligand: none
[4] = input ligand: microRNA oligo, concentration not stated

## UCUUCACAUGAGGAUCACCCAUGUCAGGAUAUGCUCCCGAGUCACCUUAUCAUGGGACGCAGAAGGGACAUUAU [EX1 B.3] (Eterna round: R97, puzzle: Exclusion 1)
Input ligand: FMN 200 uM
  apparent KD of MS2 coat protein: 43 nM
Input ligand: none
  apparent KD of MS2 coat protein: 19.8 nM

## AAGAAACAUGAGGAUCACCCAUGUGAGGAUAUGAAUAAGAAAAGAAAAGAAAGAAGAAUCAGAAGGCACAAAGG [salish99-ex1_r3_045] (puzzle: Exclusion 1)
[1]
  apparent KD of MS2 coat protein: 49.5 nM
[2]
  apparent KD of MS2 coat protein: 40.5 nM
[3]
  apparent KD of MS2 coat protein: 37.2 nM

## GGGUGACAUGAGGAUCACCCAUGUCAGGAUAUGAUACUAUGUACUUCGGUACAUAGUAUCAGAAGGGACAUCAU [Ex1-3: 14] (puzzle: Exclusion 1)
[2]
  apparent KD of MS2 coat protein: 216 nM

## GCACGGUAAGUGAGGAUAUACCUCUGGAUACAGAGGUAGAAGGCACAUGAGGAUCACCCAUGUUCCUGCCGUGC [Fiskers BMX 4 - 89] (puzzle: Brourd's mod of Exclusion 4)
[2]
  apparent KD of MS2 coat protein: 15.9 nM

## CUUGUUUAUGUAGGAUAUGCCUGGCGUGCCUUUGCAGAAGGACAUGAGGAUCACCCAUGUAACAUGAGGCUCACCCUUGUCGCA [salish99_ExNG1_r04_115] (Eterna round: R96, puzzle: Exclusion NG 1)
Input ligand: FMN 200 uM
  apparent KD of MS2 coat protein: 183 nM
[4]
  apparent KD of MS2 coat protein: 62 nM
Input ligand: none
  apparent KD of MS2 coat protein: 162 nM

## AAAUUAGCAAGUAGGUCCGACAUGAGGAUCACCCAUGUUAUCUGAAAUAACGCUGCAUGAUUGUGCGCUCGUCUUAG [Sensor-V1 #8] (Eterna round: R97, puzzle: Sensor, turn-off variant 1)
Input ligand: FMN 200 uM
  apparent KD of MS2 coat protein: 69.1 nM
Input ligand: none
  apparent KD of MS2 coat protein: 73.1 nM

## GCGGACUCGAUCGUGAGAUCGGAGACAUGAGGAUCACCCAUGUAGGAUAUCGAUUGCUUUGCAGUCGAGAAGGGCGUGGUCCGC [JL denovo 17] (Eterna round: R96, puzzle: Exclusion NG 3)
Input ligand: FMN 200 uM
  apparent KD of MS2 coat protein: 152 nM
[4]
  apparent KD of MS2 coat protein: 98.1 nM
Input ligand: none
  apparent KD of MS2 coat protein: 157 nM

## GAGAACUGAGGAUAUACAUGAGGAUCACCCAUGUUGAGAAGAAAGUAUAAAAGAUUGUGUAGAAGGCAGAGAGA [JR_Ex3_Sub069] (Eterna round: R97, puzzle: Exclusion 3)
Input ligand: FMN 200 uM
  apparent KD of MS2 coat protein: 52.3 nM
Input ligand: none
  apparent KD of MS2 coat protein: 35.8 nM

## UAAAAGCGAGGAUAUACAUGAGGAUCACCCAUGUGAGGCGAAACGCCUCGGGCCAUCAGUAGAAGGUGCAAAAC [Veorgebe] (puzzle: Exclusion 3)
[2]
  apparent KD of MS2 coat protein: 70.7 nM

## AAUACAAGCUAUUGAUCCCACAUGAGGAUCACCCAUGUAGGUGGCGGUGACACCUCCUUUACGAUAGCUCGUCUUAU [Sensor-V1 #54] (Eterna round: R97, puzzle: Sensor, turn-off variant 1)
Input ligand: FMN 200 uM
  apparent KD of MS2 coat protein: 141 nM
Input ligand: none
  apparent KD of MS2 coat protein: 226 nM

## AGUCCACAUGAGGAUCACCCAUGUCAGGAUAUACGCAAUACAAAAGAACCCAUCAAAAGUAGAAGGGACAGGGA [Getequ] (puzzle: Exclusion 1)
[1]
  apparent KD of MS2 coat protein: 13.5 nM
[2]
  apparent KD of MS2 coat protein: 10 nM
[3]
  apparent KD of MS2 coat protein: 9.06 nM

## UAAGAUUACCGAGGAUAUGGUAGUACAUAUUAACCAGAAGGCGGACUCAACAUGAGGAUCACCCAUGUAUAAAGGGUAUUAGGU [JR_ExcNG1_Sub042] (Eterna round: R96, puzzle: Exclusion NG 1)
Input ligand: FMN 200 uM
  apparent KD of MS2 coat protein: 84.7 nM
[4]
  apparent KD of MS2 coat protein: 60.3 nM
Input ligand: none
  apparent KD of MS2 coat protein: 60.3 nM

## GCGCCAUCGUGAGAUGGCGUAAUUACAUGAGGAUCACCCAUGUAGGAUAUCGAUUGCUUUGCAGUCGAGAAGGGCGUGAUAAUU [JL ENG3 3.70] (Eterna round: R96, puzzle: Exclusion NG 3)
Input ligand: FMN 200 uM
  apparent KD of MS2 coat protein: 77.7 nM
[4]
  apparent KD of MS2 coat protein: 52.5 nM
Input ligand: none
  apparent KD of MS2 coat protein: 75.5 nM

## GCCUCACAUGAGGAUCACCCAUGUCAGGAUAUCUAAGGCGAGGUGCAGGCACUUCGUGAGAGAAGGGACGUCAA [Ercecequ] (puzzle: Exclusion 1)
[2]
  apparent KD of MS2 coat protein: 18 nM

## GCCAGAGCAGGAUAUUCAGUAUCACACAUGAGGAUCACCCAUGUCCACGGAAACGUGGAGGGAGAAGGGCUCUGGC [Mat - Exclusion 5 - Eli mod - D96] (puzzle: Exclusion 5)
[1]
  apparent KD of MS2 coat protein: 35.6 nM
[2]
  apparent KD of MS2 coat protein: 126 nM
[3]
  apparent KD of MS2 coat protein: 157 nM

## CCGGCUGCUGUGAGGAUAUGCCUGCGCGCCCGCGGGCAGAAGGCACAUGAGGAUCACCCAUGUCCUGCGGUCCC [salish99_bmx4_r4_119] (Eterna round: R97, puzzle: Brourd's mod of Exclusion 4)
Input ligand: FMN 200 uM
  apparent KD of MS2 coat protein: 45.2 nM
Input ligand: none
  apparent KD of MS2 coat protein: 18.2 nM

## AGCUGUGGCCGAGGAUAUCUGAUAGUCCCAACCGAAAUAUAAUCGGACAUGAGGAUCACCCAUGUAGAGAAGGCGGUCUCAGCA [Eli eng2 - 070] (Eterna round: R96, puzzle: Exclusion NG 2)
Input ligand: FMN 200 uM
  apparent KD of MS2 coat protein: 214 nM
[4]
  apparent KD of MS2 coat protein: 57.9 nM
Input ligand: none
  apparent KD of MS2 coat protein: 73.9 nM

## UUUUCAUAUGAAGGAUAUACUUAACAUGAGGAUCACCCAUGUGGUGUUGUGAGUGAGUGAGUUUAGUAGAAGGUCAAGUAUUUU [JMF's solution 48] (Eterna round: R96, puzzle: Exclusion NG 2)
Input ligand: FMN 200 uM
  apparent KD of MS2 coat protein: 805 nM
[4]
  apparent KD of MS2 coat protein: 304 nM
Input ligand: none
  apparent KD of MS2 coat protein: 304 nM

## UCUCGUUGGCAAGGAUAUCCUACAUUGUUCUGGCCCGGGCAUGCUACAUGAGGAUCACCCAUGUGGGAGAAGGUGCGCCAUUGC [Design 24] (Eterna round: R96, puzzle: Exclusion NG 2)
Input ligand: FMN 200 uM
  apparent KD of MS2 coat protein: 80.9 nM
[4]
  apparent KD of MS2 coat protein: 49.7 nM
Input ligand: none
  apparent KD of MS2 coat protein: 65.2 nM

## UCUUAUAGAGGAUAUACAGAUUAUUACAUGAGGAUCACCCAUGUUCUUCAAUGUAUAUAUGUAGAAGGCUAAGGAU [Mat - Exclusion 5 - JL Mod - D9] (Eterna round: R97, puzzle: Exclusion 5)
Input ligand: FMN 200 uM
  apparent KD of MS2 coat protein: 316 nM
Input ligand: none
  apparent KD of MS2 coat protein: 111 nM

## GCAUUCUGAGGAUAUACAUGAGGAUCACCCAUGUUGAGAAAUAAGAAUAAGUACUUAAGUAGAAGGCAGAGUGC [JR_Ex3_Sub074] (Eterna round: R97, puzzle: Exclusion 3)
Input ligand: FMN 200 uM
  apparent KD of MS2 coat protein: 61.6 nM
Input ligand: none
  apparent KD of MS2 coat protein: 15.8 nM

## ACAUGCCUUGCAGGAUAUAGGACACAUGAGGAUCACCCAUGUGGUUUCAUGUCUAACCAAGCGUCCUAGAAGGGCGGGAACAUG [Ex NG2 #28] (Eterna round: R96, puzzle: Exclusion NG 2)
Input ligand: FMN 200 uM
  apparent KD of MS2 coat protein: 44.9 nM
[4]
  apparent KD of MS2 coat protein: 25.8 nM
Input ligand: none
  apparent KD of MS2 coat protein: 36.5 nM

## CACCGUUAGCGAGGAUAUCGUACAUGAGGAUCACCCAUGUAAUAAAUGAGAAUUUCGGAUGUAUGCGAGAAGGCGCAAAUCGGC [Ostracism 41 - Jieux - Exclusion NG 2] (Eterna round: R96, puzzle: Exclusion NG 2)
[4]
  apparent KD of MS2 coat protein: 45.3 nM

## GGUGCGUGUGUGAGGAUAUGCUGGUCCUUGGAUCAGCAGAAGGCACAUGAGGAUCACCCAUGUGGUGUCGUACC [salish99_Bmod_Ex4_029] (puzzle: Brourd's mod of Exclusion 4)
[2]
  apparent KD of MS2 coat protein: 232 nM

## AGAUCACAUGAGGAUCACCCAUGUGAGGAUAUGAUACUAUGUACUUCGGUACAUAGUAUCAGAAGGCGCGUGAA [Ex1-3: 72] (puzzle: Exclusion 1)
[2]
  apparent KD of MS2 coat protein: 28.5 nM

## AGAGUGUGAGGAUAUAUGGUGCAGAUGAAGGGAUAGAAGGAGUAGAAGGUACAUGAGGAUCACCCAUGUUAGGA [JR_Exclu4_Sub077] (puzzle: Exclusion 4)
[2]
  apparent KD of MS2 coat protein: 25.5 nM

Reference: the supplement of paper PMC9170038
